doi:10.1101/2021.05.17.443621 (bioRxiv, 2021)

Target: T1, Stt3p (yeast (endogenous), UniProt P39007 1-718, N-glycan at N539)
T1 sequence (looked up): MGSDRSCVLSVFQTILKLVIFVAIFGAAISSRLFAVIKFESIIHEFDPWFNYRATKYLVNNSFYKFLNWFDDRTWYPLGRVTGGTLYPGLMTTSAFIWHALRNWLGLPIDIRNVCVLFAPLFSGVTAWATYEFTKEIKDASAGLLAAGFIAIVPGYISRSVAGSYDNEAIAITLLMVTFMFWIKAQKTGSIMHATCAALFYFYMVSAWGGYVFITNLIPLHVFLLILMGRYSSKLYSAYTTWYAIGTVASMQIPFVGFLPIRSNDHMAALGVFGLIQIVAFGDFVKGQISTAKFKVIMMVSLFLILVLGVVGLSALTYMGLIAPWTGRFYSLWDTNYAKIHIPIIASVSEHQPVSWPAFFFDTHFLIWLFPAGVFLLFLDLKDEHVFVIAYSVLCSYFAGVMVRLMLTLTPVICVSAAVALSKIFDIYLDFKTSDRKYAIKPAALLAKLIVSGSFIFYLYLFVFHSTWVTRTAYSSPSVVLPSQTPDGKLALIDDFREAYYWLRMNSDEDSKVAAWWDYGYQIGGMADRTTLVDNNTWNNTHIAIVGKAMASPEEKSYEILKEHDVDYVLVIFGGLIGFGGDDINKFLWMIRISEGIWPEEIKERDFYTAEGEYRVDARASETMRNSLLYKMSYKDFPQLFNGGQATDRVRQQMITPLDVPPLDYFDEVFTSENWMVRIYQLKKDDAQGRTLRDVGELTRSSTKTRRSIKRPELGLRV
Experiment: cryo-EM structure

binding result: binds
B1: Ost6p (natural protein, yeast, UniProt Q03723 25-332, looked up)
chain: TASHNIDDILQLKDDTGVITVTADNYPLLSRGVPGYFNILYITMRGTNSNGMSCQLCHDFEKTYHAVADVIRSQAPQSLNLFFTVDVNEVPQLVKDLKLQNVPHLVVYPPAESNKQSQFEWKTSPFYQYSLVPENAENTLQFGDFLAKILNISITVPQAFNVQEFVYYFVACMVVFIFIKKVILPKVTNKWKLFSMILSLGILLPSITGYKFVEMNAIPFIARDAKNRIMYFSGGSGWQFGIEIFSVSLMYIVMSALSVLLIYVPKISCVSEKMRGLLSSFLACVLFYFFSYFISCYLIKNPGYPIVF
